Test results as given in patent US20160052996A1.

B1: NI-307.25G10 (antibody, V domains shown)
VH: EVQLVESGGGLVQPGGSLRLSCVASGIIFKDYDFHWVRQVKEKGLEWVSAIGTAGDPYYAASVKGRFTVSRENGKNSVYLRMNNVGAGDTALYYCTSGNYFDRGSFRPSAFDMWGQGTMVTVSS
VL: EIVLTQSPGTLSLSPGERATLSCWASQSVSSNYLAWYQHKPGQAPRLLIFRASRRATDIPERFSAGGSGTDFTLTISRLEAEDSAVYYCQEYGSAPPASITFGQGTRLEIK
B2: NI-307.78C3 (antibody, V domains shown)
VH: QVQLQESGPGLVKPSGTLSLTCTVSGGSISGRIWWSWVRQPPGKGLEWIGEIYHSGSTNYSPSLRGRVTISVDTSKQHFSLKMTSVTAADTAMYYCVRGELALGFDSWGQGTLVTVSS
VL: QSALTQPPSASGSPGQSVTISCTGTSSDVGGYNSVSWYQQHPRRAPKLMIYEVSKRPSGVPDRFSGSKSGNTASLTVSGLQADDEAHYYCSSYAGSNNLVFGGGTMLTVL
B3: NI-307.5H3 (antibody, V domains shown)
VH: QVQLQESGPGLLKPLGTLSLICDVSGDSISSSNWWSWVRQSPRKGLEWIGEIYHSGRTNYNPSLTNRVTISVDKSKNQFSLNLNSVTAADTGVYYCARWDYYYNNDYYIRGFDIWGQGTMVTVSS
VL: EIVLTQSPGILSLSPGERATLSCRASQSVDSNYLAWYQQKPGQAPRLLIYSTSTRAAGVPDRFSGSGSGTDFALTISGLEPEDFAVYYCQQWGGSPPITFGQGTRLEIK
B4: NI-307.19F10 (antibody, V domains shown)
VH: EVQLVESGGGLVQPGGSVSLSCAASGFTFPVYWMHWVRQAPEKGLMWVSRISPDGTIVDYAGSVKGRFTVSRDNAKNILYLQIQRLTAEDTAVYFCTKDFDVASGFWGQGTLVTVSS
VL: QSALTQPPSASGSPGQSVTISCTGSKSDVGTCHFVSWYQQHPGKVPKLVIYEGNKRPSGVPDRFSASKSGNTASLTISGLQPGDEADYYCSTCAGPNNYVFGTGTKVTVL
B5: NI-307.1E1 (antibody, V domains shown)
VH: EVQLVESGGGLVKPGGSLRLSCAASGFIFSDAWMNWVRQAPGKGLEWVGHIKSRPAGGTTEYAAPVKGRFTISRDDSTDTLYLQMNNLKAEDTAVYYCSTGHYGVYGLGTLVTVSS
VL: DIQMTQSPSTLSASVGDRVTITCRASQSIRDYLAWYQQKPGKAPKLLIYDGSILEGGVPSRFSGSVSGTDFTLTISSLQSDDFATYYCQQYTSYSSWTFGQGTKVEIK
B6: NI-307.57D5 (antibody, V domains shown)
VH: EVQLVESGGGLAQPGGSLRLSCAGSGFTLSDFAMSWVRRAPGKGLEWVSSLTPSGRNSFYSDSVKGRFTISRDNWKNTLYLEMNLLRPEDTAVYYCARPGAPKNSDSKYSYVRVDFQHWGQGTLVTVSS
VL: NFMLTQPHSVSESPGRTVTISCTRSSGSIANNFVQWYQHRPGSAPTTLIYEDDQRPSGVPDRFSGSVDSFSNSASLTISGLKTEDEADYFCQSYDNHNWVFGGGTTLTVL
B7: NI-307.26E10 (antibody, V domains shown)
VH: EVQLVESGGGLVLPGGSLRLSCAVSGFTVRNEYMRWARQAPGRGLEWVSVIYRDGQTHHADTVKGRFDVSKDTSKNTMYLQMHNLRVDDTAIYYCARGHYGPWGQGTLVTVSS
VL: DIQMTQSPSTLPASVGDRVTITCRASQSINNWLAWYQQKPGKAPNLLIYDASNLETGVPSRFSGSGSGTEFTLTISSLQPDDFATYYCQQYNSHSHTWTFGQGTKVEIK
B8: NI-307.24F3 (antibody, V domains shown)
VH: QVQLQESGGGVVQPGRSLRLSCAASGFSFNRYGMHWVRQAPGKGLEWLAVISNDGVNTHYADSVKGRFTISRDNSKSTLYLQASSLRVEDTAVYYCAGYYYGSGTSLFFYWGQGTLVTVSS
VL: EIVLTQSPDSLAVSLGERATINCKSSQTVLYSSNNQNYLAWYQQKPGQPPKLLLYWASTRESGVPDRFSGSGSGTDFTLTISSLQPEDVAVYYCQQYYTAPYTFGQGTKVEIK
B9: NI-307.3G4 (antibody, V domains shown)
VH: QVQLVQSGAELKKPGAAVKVSCQASGYNFLSYGINWVRQIPGQGLQWLGWISTYDGTMNYDQKPDNRVTVTTDTSSSTVYLELRGLRSDDTGVYYCVRDRCAGAGCSHSLGYWGQGTLVTVSS
VL: DIQMTQSPSALSASVGDRVTISCRASQNINTQLNWYQEKPGKAPELLIYGAFNLQSGAPSTFSGSGSGTDFTLTITSLQPEDFASYYCQQGFHAPYTFGRGTKVDIK
B10: NI-307.6A2 (antibody, V domains shown)
VH: QVQLQESGPGLVKPSETLSLTCAVSGGSVSSSYWYSWVRQLPGKGLEWIGEIFHTGDTNYNPSLESRVTISIDTSKNQLSLDVTSATAADTAVYYCARDYCTDSGCDSDALDVWGHGTMVTVSS
VL: QSALTQPASVSGSPGQSITISCTGTTKDVGNYNLVSWYQQHPGKAPRLVIYEVSERPSGVSNRFSGSKSGNTASLTISGLQAEDEADYHCCSYAGSGTSVFGGGTKVTVL
B11: NI-307.24C6 (antibody, V domains shown)
VH: QLQLQESGPGLVKPSGTLSLICVVSGSSIRSNIWWWNWVRQSPGKGLEWIGEIYHSGSTNYSPSLKSRVTMSVDNSKNQFSLKMSSVTAADTAVYFCAINTRTSISGVLYDTFDVWGQGTMVTVSS
VL: EIVLTQSPATLSLSSGERATLSCRASQSVSGYLAWYQQKPGQAPRLLIYDGSNRATGIPARFSGSGSGTDFTLTISSLEPEDFAVYYCQHRSNWPMYTFGQGTKLEIK
B12: NI-307.43A11 (antibody, V domains shown)
VH: QVQLQESGPGLVKPSGTLSLTCAVTGGSISSSNWWSWVRQSPGKGLEWIGEIHHDGNLNYNPLLKSRVSMSLDRSKNQFSLKLTSVTAADTAVYYCARWDFFFDSSYYIRGFDLWGQGTMVTVSS
VL: ETTLTQSPGTLSLSPGERVTLSCRASQSVDRNYLAWYQQKPGQSPRLLIYSASRRATGIPDRFSGSGSGTDFTLTISRLEPEDFVVYYCQQYGGSPPITFGQGTRLEIK
B13: NI-307.18E12 (antibody, V domains shown)
VH: QVQLQQWGAGLLKPSETLSLTCAVYGDSFSGFFWAWIRQTPGTGLEWIGEIQHGGSPTYNPSFESRLTISTDASKSQVSLKMTSVTVTDTAIYYCARCIRGKYGSGSLQLWSQGTLVTVSS
VL: DIQLTQSPSFLSASVGDRVTITCRASQDINYHLAWYRQKPGKAPDLLIHSAHTLHIGVSSRFSGSGSGTEFTLTIHTLQPEDFATYYCHQPKTFPPTFGGGTKVDIK
B14: NI-307.43E8 (antibody, V domains shown)
VH: EVQLVESGGDVVQPGRSLRLSCAASGFAFSIYAMNWVRQAPGKGLEWVALISTSGTEHYADSVKGRFTISRDNSKNTLFLQINSLRVEDTAVYYCARDLDSTGYYENNYWGQGTLVTVSS
VL: DVVMTQSPLSSPVSLGQPASISCRSSHSLVHSNGDTYLSWLQQRPGQPPRLLIYKISNRFSGVPDRFSGSGAGTDFTLKISRVEAEDVGVYFCMQATSFPRTFGQGTKVEIK

These binders were tested against BKV VP1 (BK virus (BKV), AS strain) (UniProt P14996) (assay: direct ELISA).
Sequence of BKV VP1 (BK virus (BKV), AS strain) (P14996 whole entry): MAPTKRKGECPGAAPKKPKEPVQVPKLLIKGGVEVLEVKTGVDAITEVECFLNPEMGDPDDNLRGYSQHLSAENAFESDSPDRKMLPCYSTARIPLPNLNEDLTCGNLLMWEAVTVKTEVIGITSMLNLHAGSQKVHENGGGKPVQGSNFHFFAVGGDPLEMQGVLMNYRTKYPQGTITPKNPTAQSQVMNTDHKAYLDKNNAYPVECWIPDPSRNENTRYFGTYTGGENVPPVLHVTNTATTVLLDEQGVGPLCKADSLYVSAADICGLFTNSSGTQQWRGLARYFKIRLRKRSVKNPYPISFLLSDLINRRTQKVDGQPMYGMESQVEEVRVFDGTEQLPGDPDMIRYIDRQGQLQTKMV

**Q.** Which EC50 does the source give for B1 here?
**A.** Its EC50 is 0.514 nM.

**Q.** B2 was tested. Which EC50 did it give?
**A.** The EC50 was 1.96 nM.

**Q.** With B3 as the binder, how does the EC50 read?
**A.** Its EC50 is 0.362 nM.

**Q.** For B4, which EC50 is on record?
**A.** Its EC50 is 2.41 nM.

**Q.** With B5 as the binder, how does the EC50 read?
**A.** The EC50 was 6.05 nM.

**Q.** With B6 as the binder, how does the EC50 read?
**A.** The EC50 was 37.5 nM.

**Q.** How did the EC50 turn out when B7 was run?
**A.** The EC50 was 1.35 nM.

**Q.** Which EC50 does the source give for B8 here?
**A.** Its EC50 is 1.04 nM.

**Q.** B9 was tested. Which EC50 did it give?
**A.** Its EC50 is 27.4 nM.

**Q.** B10 was tested. Which EC50 did it give?
**A.** Its EC50 is 1.79 nM.

**Q.** Which EC50 does the source give for B11 here?
**A.** The EC50 was 0.816 nM.

**Q.** With B12 as the binder, how does the EC50 read?
**A.** The EC50 was 9.7 nM.

These binders were tested against BKV VP1 VLP (BK virus (BKV), AS strain) (UniProt P14996) (assay: direct ELISA).
Sequence of BKV VP1 VLP (BK virus (BKV), AS strain) (P14996 whole entry): as above

**Q.** For B1, which EC50 is on record?
**A.** Its EC50 is 0.172 nM.

**Q.** Which EC50 does the source give for B2 here?
**A.** Its EC50 is 0.939 nM.

**Q.** Which EC50 does the source give for B3 here?
**A.** The EC50 was 0.288 nM.

**Q.** With B4 as the binder, how does the EC50 read?
**A.** Its EC50 is 1.1 nM.

**Q.** B5 was tested. Which EC50 did it give?
**A.** Its EC50 is 11 nM.

**Q.** With B6 as the binder, how does the EC50 read?
**A.** The EC50 was 104 nM.

**Q.** With B7 as the binder, how does the EC50 read?
**A.** Its EC50 is 0.74 nM.

**Q.** How did the EC50 turn out when B8 was run?
**A.** The EC50 was 28.8 nM.

**Q.** With B9 as the binder, how does the EC50 read?
**A.** The EC50 was 16.4 nM.

**Q.** For B10, which EC50 is on record?
**A.** Its EC50 is 1.17 nM.

**Q.** How did the EC50 turn out when B11 was run?
**A.** Its EC50 is 0.396 nM.

**Q.** How did the EC50 turn out when B12 was run?
**A.** The EC50 was 10 nM.

What follows are binders tested against JCV VP1 VLP (JC virus (JCV), Mad-1 strain) (UniProt P03089) (assay: direct ELISA).
Sequence of JCV VP1 VLP (JC virus (JCV), Mad-1 strain) (P03089 whole entry): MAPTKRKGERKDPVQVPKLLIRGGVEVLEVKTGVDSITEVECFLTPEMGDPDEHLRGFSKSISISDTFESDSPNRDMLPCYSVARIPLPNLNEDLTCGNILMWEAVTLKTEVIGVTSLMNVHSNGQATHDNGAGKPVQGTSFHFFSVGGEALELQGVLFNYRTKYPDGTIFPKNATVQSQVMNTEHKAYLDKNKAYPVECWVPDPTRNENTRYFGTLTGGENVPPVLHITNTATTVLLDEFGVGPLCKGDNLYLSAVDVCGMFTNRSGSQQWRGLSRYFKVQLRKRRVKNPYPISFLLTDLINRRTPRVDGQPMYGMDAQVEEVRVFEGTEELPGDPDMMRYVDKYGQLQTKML

**Q.** Which EC50 does the source give for B5 here?
**A.** The EC50 was 281 nM.

Each binder was assayed against BKV VP1 (BK virus (BKV), AS strain) (UniProt P14996) (assay: direct ELISA, plate coated with antigen at 5 µg/ml in carbonate buffer; EC50 by non-linear regression (GraphPad Prism)).

**Q.** With B13 as the binder, how does the EC50 read?
**A.** The EC50 was 61.5 nM.

**Q.** For B14, which EC50 is on record?
**A.** Its EC50 is 0.34 nM.

What follows are binders tested against BKV VP1 VLP (BK virus (BKV), AS strain) (UniProt P14996) (assay: direct ELISA, plate coated with antigen at 5 µg/ml in reassociation buffer (VLP); EC50 by non-linear regression (GraphPad Prism)).

**Q.** For B13, which EC50 is on record?
**A.** Its EC50 is 111 nM.

**Q.** For B14, which EC50 is on record?
**A.** The EC50 was 0.38 nM.
